Results reported in paper PMC3807668, “Structure of the CRISPR Interference Complex CSM Reveals Key Similarities with Cascade” (Molecular Cell, 2013).
“And” between values parts separate entries of the source, which are not always exact repeats. Equal entries are not always repeated.

T1: Sso1428 with C-terminal tandem tag (Strep and 10x His) (S. solfataricus, UniProt Q97YA4 1-558, methylation (residues not given))
T1 chain: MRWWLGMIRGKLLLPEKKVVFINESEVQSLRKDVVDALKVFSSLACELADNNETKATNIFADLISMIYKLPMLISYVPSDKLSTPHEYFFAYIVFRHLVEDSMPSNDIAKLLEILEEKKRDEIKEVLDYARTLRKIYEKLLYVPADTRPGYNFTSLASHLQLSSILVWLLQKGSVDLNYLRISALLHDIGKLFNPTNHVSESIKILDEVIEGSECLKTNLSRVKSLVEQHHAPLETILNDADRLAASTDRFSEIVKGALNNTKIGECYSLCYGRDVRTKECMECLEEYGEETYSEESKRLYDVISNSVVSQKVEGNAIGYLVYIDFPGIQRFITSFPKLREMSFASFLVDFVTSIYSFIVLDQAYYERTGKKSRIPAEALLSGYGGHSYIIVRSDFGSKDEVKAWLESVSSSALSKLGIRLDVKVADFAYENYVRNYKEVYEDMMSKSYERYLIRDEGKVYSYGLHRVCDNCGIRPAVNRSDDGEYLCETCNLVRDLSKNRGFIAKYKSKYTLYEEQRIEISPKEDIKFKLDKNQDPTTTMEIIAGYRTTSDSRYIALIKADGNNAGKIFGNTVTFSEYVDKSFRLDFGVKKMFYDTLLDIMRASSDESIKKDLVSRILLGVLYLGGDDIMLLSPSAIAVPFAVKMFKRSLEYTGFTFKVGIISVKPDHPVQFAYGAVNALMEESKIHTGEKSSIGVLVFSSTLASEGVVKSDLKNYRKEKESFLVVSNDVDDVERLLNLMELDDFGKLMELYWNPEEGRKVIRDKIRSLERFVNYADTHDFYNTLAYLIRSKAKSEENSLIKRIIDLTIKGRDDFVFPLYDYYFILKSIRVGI

B1: Sso1424 (natural protein, UniProt Q97YA8 16-139, looked up)
chain: SSQDLLDIATRIAISAIKPKPKSNKPEPYVDSSTINSLLSFLQSRRNVNELLLYIMRQAGRDEIDEETGKLLLASLKDRELKDAVNLLGYVKWVYDTLTGLKVNYNNVKGVKTFKELVNILSKV
modifications: acetylated N-terminal Ser-16; seven methylated lysines (positions not given)
notes: Sso1424, small subunit (probably Csm2) of the CSM complex of S. solfataricus; three copies in the CSM complex; also called small subunit; Csm2; source: endogenous, S. solfataricus PH1-16; co-purified with the tagged subunit (HisTrap, monoQ, gel filtration)
B2: Sso1430 (natural protein, UniProt Q97YA2 1-206, looked up)
chain: MIPIKVSMRNLSSLTIAGGSTISSIDIPLNPLGVPPSTIKGTMRTAVHNLLPNGYTSCGEVEPESIREAHKNGVCDVCKLFGYPDSLTGCFTIDVSKTDYRTSYITRVSIDDKTQRAKEGSLFTQQIILPNSDISFTVYYNCNDERLFKLLLYSILDLRYWRLGRNTMIDVKVNNVEEICKSVKCDEEINGILNQLSRYLWEAENK
modifications: methylation (residues not given)
notes: Sso1430, subunit of the CSM complex of S. solfataricus; also called RAMP subunit; Csm3 paralog; source: endogenous, S. solfataricus PH1-16; co-purified with the tagged subunit (HisTrap, monoQ, gel filtration)
B3: Sso1426 (natural protein, UniProt Q97YA6 1-281, looked up)
chain: MVLMVNYTFIDKRVIKRTTMIEGDVETVSPLKIGGGKDNFDPSSLAKDSILKDVEGRPIIPGSSWKGIFRSTGERILRLRNIEVCSGIGKDYCLNNNRKERDFNSALKENVDQALEIFWDYTCLNCKVFGTMSVIGAVRFLDSLPISYSLNTRSMIAISRTEGAVARRALVTVEYVDVGSKFSFKMMGYNLPNYAIGYLITIMKNIHDGFTQVGGHKSRGFGFVKFGKVKFTDLGEKRIGDEDIQVKDVGDLVEGNGDEFFGRMKPFMEAFNNAKIPYPKK
modifications: methylation (residues not given)
notes: Sso1426, RAMP subunit assigned to the Csm3 (Cas7-like) family, CSM complex of S. solfataricus; four copies in the CSM complex; its mass lies within 70 Da of that of Sso1427; also called Csm3; Cas7 family RAMP subunit; source: endogenous, S. solfataricus PH1-16; co-purified with the tagged subunit (HisTrap, monoQ, gel filtration)
B4: Sso1432 (natural protein, UniProt Q97YA0 1-252, looked up)
chain: MVIQVFRLNFRLRTGFRVGGGQEVGDNVIRQLRIGVEGVMIPASSWKGMFRRVSEIVLNSEDHFEEHSKKEVDTRTINALLKSDEKFRRIAISKVGKEVITQNGINVDKLDSESLSDLRRIYNEYNCPIERLYGSNYFAGGITISDSVIPNASIMERTHVTIERKSKKASEKHLFSEEIIDAEKIEVKVIVRNEFELWKNSLKLLREIGYFIGGSKSRGIGYIVLDEKESEYAVINNFSETPKFSELKRYLS
modifications: methylation (residues not given)
notes: Sso1432, RAMP subunit of the CSM complex of S. solfataricus; also called RAMP subunit; Csm3 paralog; source: endogenous, S. solfataricus PH1-16; co-purified with the tagged subunit (HisTrap, monoQ, gel filtration)
B5: Sso1431 (untagged, in the complex purified by tagged Sso1428) (natural protein, UniProt Q97YA1 1-304, looked up)
chain: MILIKLKVKGYITTQMRRIRNYYFSITNYIPSTTLRGAILAEYYNQTGKIDENFYVSPAYPIKTAPAHYFSPAKERKGDEFIEVKRILEKKEKEFEANKPIEEIMKLEIDGKHPKPKIGSLITYEGETDKENKYREFSSKSIIQMHVAIDKTSISSYKGMLFAYEYKEFDEMWAIASDSEVIDTVKRIKIGRGKNRGNKVVDVEKVREVSLDQSKGLLYCLSPCIGSLFGKTFFKAKYIIGDKSIYSGWFTVDSFSGQKPVFETLREGSLVYVESFSNEKSLMPAGLNFMLRISDLSSILNKVS
modifications: methylation; phosphorylation (residues not given)
notes: Csm4 (Sso1431, Cas5 subfamily RAMP protein) of the CSM complex of S. solfataricus; also called Csm4; Cas5-like RAMP subunit; source: endogenous, S. solfataricus PH1-16; co-purified with tagged Sso1428 (HisTrap, monoQ, gel filtration)
B6: Sso1425 (natural protein, UniProt Q97YA7 1-250, looked up)
chain: MKMSCMDLDVITTVVKIEGKLRNETLLRVGKGKTQDFAEATDNPIIKYRDRPLIPGSSLKGAFRSLVESYTKSLNDSKYYVCDLDDNSCVSCEEKKKDNGIVEGRYCIPCILFGFKDLASRVYILDAIAEKYSISQRTMVAINRVFGGQMPGHLYTLDYVDPGSEFSFMMMIYNLNLIEGEKDWKAKSVEALKFLLATLVREGIFVGARKSVGYGLIKLVDAKVSLYKAPDHLVSPVIVKKLEEVIGTNG
modifications: methylation; phosphorylation (residues not given)
notes: Sso1425, RAMP subunit of the CSM complex of S. solfataricus; also called RAMP subunit; Csm3 paralog; source: endogenous, S. solfataricus PH1-16; co-purified with the tagged subunit (HisTrap, monoQ, gel filtration)
B7: Sso1427 (natural protein, UniProt Q97YA5 1-275, looked up)
chain: MQRSPIRRSNYTPRNEKGLEGVIELQLNVVSDYLHVGSGKYDVEVMRSVSDVKRLVEDYLSGGNKRIPNNVDQYFSMVAFLMVRNKDNVVIPGSTIKGMVRSRLELSVPGSCYIVTGHSTSSSAVYKRIFNPDPNRGSDRFDVNKFPQVCPVCDLLGNMGLASRVSLSDFVMTSGKVDYVNVKGRDYEVVTKGSIFAGKVLYKSLKPVEIGMLLYGFGFVKDCNGSKVMLLGRFKFSDKRFGRVKFSLKTPIADCNKLVSDFVKQFNPRYINEEW
modifications: methylation (residues not given)
notes: Sso1427, RAMP subunit of the CSM complex of S. solfataricus; its mass lies within 70 Da of that of Sso1426; also called RAMP subunit; Csm3 paralog; source: endogenous, S. solfataricus PH1-16; co-purified with the tagged subunit (HisTrap, monoQ, gel filtration)

Molecular target: T1, Sso1428 with C-terminal tandem tag …
Assay: native MS + other: quantitative proteomics with isotope-labelled peptides; exhaustive mass search on the intact mass 427,611 Da; copy numbers of Sso1424, Sso1425 and Sso1426 allowed to vary by one, the others fixed by Table 1; one hit within a mass error of 3%
Settings: both partners purified

Row | stoichiometry N | Binder
1 | 3 subunit:Sso1428 | B1
2 | 1 subunit:Sso1428 | B2
3 | 4 subunit:Sso1428 | B3
4 | 1 subunit:Sso1428 | B4
5 | 1 subunit:Sso1428 | B5
6 | 1 subunit:Sso1428 | B6
7 | 1 subunit:Sso1428 | B7

Molecular target: the molecule itself
Assay: as above
Settings: not given

Row | Binder | stoichiometry N
8 | B1 | 3 copies
9 | B3 | 4 copies

molecular target: B7; assay: cross-linking; purified CSM complex (1 ug/ul) with a 1:1 mixture of d4 and d0 BS3, 1 hr at room temperature; cross-linked peptides found by MS (MassMatrix) and validated by hand; settings: both partners purified

Row | binding result | Binder
10 | binds | B1

Molecular target: T1, Sso1428 with C-terminal tandem tag …
Assay: quantitative proteomics with isotope-labelled dipeptides (LC-MS); purified CSM complex spiked with synthetic (15N,13C)-labelled dipeptides joining a peptide of each subunit to the reference peptide of Sso1428, trypsin digest, LTQ-Orbitrap; ratio of peak areas
Settings: both partners purified

Row | stoichiometry N | Binder
11 | 3.62 subunit:Sso1428 and 3.51 subunit:Sso1428 and 4.03 subunit:Sso1428 and 3.72 subunit:Sso1428 | B1
12 | 4.85 subunit:Sso1428 and 4.81 subunit:Sso1428 and 4.73 subunit:Sso1428 and 4.8 subunit:Sso1428 | B3
13 | 0.92 subunit:Sso1428 and 0.91 subunit:Sso1428 and 0.96 subunit:Sso1428 and 0.93 subunit:Sso1428 | B4
14 | 0.67 subunit:Sso1428 and 0.65 subunit:Sso1428 and 0.7 subunit:Sso1428 | B5
15 | 1.45 subunit:Sso1428 and 1.35 subunit:Sso1428 and 1.56 subunit:Sso1428 | B6
16 | 0.8 subunit:Sso1428 and 0.79 subunit:Sso1428 and 0.83 subunit:Sso1428 and 0.81 subunit:Sso1428 | B7

molecular target: B2; assay: native MS; purified CSM complex disassembled in 200 mM ammonium acetate with 5%-20% acetic acid (pH 3.9, 3.5, 3.2); subcomplexes of 357 to 120 kDa assigned by tandem MS; interaction map deduced from the disassembly pattern with the help of the EM shape; settings: both partners purified

Row | binding result | Binder
17 | binds | B1

molecular target: B5; assay: as above; settings: both partners purified

Row | binding result | Binder
18 | binds | B7
